Changes are numbered by the printed parent chain. Read-outs that look alike come from different tables or passages of the source. Values belong to the binder of their own block, whether it stands above or below them. No end group written: not given here.
What was measured:
human Y4 receptor [1] = biological target: T1, human Y4 receptor (human, UniProt P50391 1-375); test: 125I-PP displacement
human Y4 receptor [2] = biological target: T1, human Y4 receptor; test: 125I-PP displacement; remark: listed apart in the source

T1 sequence (P50391 whole entry): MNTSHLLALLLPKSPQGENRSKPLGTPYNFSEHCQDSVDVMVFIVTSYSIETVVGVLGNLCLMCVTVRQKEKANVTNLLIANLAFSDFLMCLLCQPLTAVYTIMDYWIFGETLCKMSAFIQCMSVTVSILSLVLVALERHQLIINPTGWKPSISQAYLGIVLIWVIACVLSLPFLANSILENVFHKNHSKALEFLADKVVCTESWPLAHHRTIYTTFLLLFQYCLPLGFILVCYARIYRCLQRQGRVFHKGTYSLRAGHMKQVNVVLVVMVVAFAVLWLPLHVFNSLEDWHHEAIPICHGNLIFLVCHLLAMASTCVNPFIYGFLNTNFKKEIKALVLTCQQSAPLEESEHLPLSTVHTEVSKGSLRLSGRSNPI

IC50 (human Y4 receptor [1]): 0.05 nM
B1: 4059969 (peptide)
chain: AAPLEPHYPGDNATPEQLARYYSELRRYINKLTRPRY

IC50 (human Y4 receptor [2]): 0.125 nM
B2: 4057161 (peptide)
chain: B1 chain with H7V, L18M, Y22A, S23A

IC50 (human Y4 receptor [1]): 0.035 nM
B3: 4060214 (peptide)
chain: B1 chain with H7V, N12D, E16Q, L18M

IC50 (human Y4 receptor [1]): 0.095 nM
B4: 4060148 (peptide)
chain: B1 chain with A1D, H7V, L18M, R20K

IC50 (human Y4 receptor [1]): 0.083 nM
B5: 4059965 (peptide)
chain: B1 chain with Q17E, L18M

IC50 (human Y4 receptor [1]): 0.067 nM
B6: 4060212 (peptide)
chain: B1 chain with H7T

IC50 (human Y4 receptor [1]): 0.064 nM
B7: 4059967 (peptide)
chain: B1 chain with A1G

IC50 (human Y4 receptor [2]): 0.062 nM
B8: 4057271 (peptide)
chain: B1 chain with H7V, L18M, R20K

IC50 (human Y4 receptor [1]): 0.075 nM
B9: 4060211 (peptide)
chain: B1 chain with A1G, H7T

IC50 (human Y4 receptor [1]): 0.122 nM
B10: 4059976 (peptide)
chain: AAPLEPEAPGDNATPEQMAKYAAALRRYINKLTRPRY

IC50 (human Y4 receptor [1]): 0.115 nM
B11: 4059940 (peptide)
chain: PAPLEPHFPGDNATPEEMAKYAAELRRYINKLTRPRY

IC50 (human Y4 receptor [1]): 0.151 nM
B12: 4060141 (peptide)
chain: B11 chain with H7T, F8Y, M18L, K20R

IC50 (human Y4 receptor [1]): 0.128 nM
B13: 4059938 (peptide)
chain: B11 chain with F8A

IC50 (human Y4 receptor [1]): 0.136 nM
B14: 4060138 (peptide)
chain: B11 chain with H7K, F8Y, M18L, K20R

IC50 (human Y4 receptor [1]): 0.228 nM
B15: 4059971 (peptide)
chain: B11 chain with P1D, H7E, F8Y, N12D

IC50 (human Y4 receptor [1]): 0.097 nM
B16: 4059974 (peptide)
chain: B10 chain with A1P

IC50 (human Y4 receptor [2]): 0.141 nM
B17: 4057152 (peptide)
chain: B11 chain with H7V, F8Y, E17Q, K20H

IC50 (human Y4 receptor [1]): 0.118 nM
B18: 4059936 (peptide)
chain: B11 chain with F8Y, A23S

IC50 (human Y4 receptor [1]): 0.073 nM
B19: 4059942 (peptide)
chain: B11 chain with P1G, F8Y, L32I

IC50 (human Y4 receptor [1]): 0.093 nM
B20: 4059951 (peptide)
chain: B11 chain with F8Y, I29L

IC50 (human Y4 receptor [1]): 0.209 nM
B21: compound of SEQ ID NO:1090 (code 4059937) (peptide)
peptide: B11 chain with P1G, F8A
modifications: ends and bridges not checked

IC50 (human Y4 receptor [1]): 0.077 nM
B22: 4059943 (peptide)
chain: B11 chain with F8Y, L32I

IC50 (human Y4 receptor [1]): 0.09 nM
B23: compound of SEQ ID NO:1092 (peptide)
peptide: B11 chain with P1G
modifications: ends and bridges not checked

IC50 (human Y4 receptor [1]): 0.112 nM
B24: 4060205 (peptide)
chain: B10 chain with A1P, A8Y, N12D, A24E

IC50 (human Y4 receptor [1]): 0.173 nM
B25: 4060145 (peptide)
chain: B11 chain with P1D, H7R, F8Y

IC50 (human Y4 receptor [2]): 0.085 nM
B26: 4057270 (peptide)
chain: APLEPVYPGDNATPEQMAKYYSELRRYINKLTRPRY

IC50 (human Y4 receptor [2]): 0.059 nM
B27: 4057160 (peptide)
chain: B26 chain with K19R, Y21A, S22A

IC50 (human Y4 receptor [2]): 0.083 nM
B28: 4057257 (peptide)
chain: APLEPEYPGDDATPQQMAKYAADLRRYINKLTRPRY

IC50 (human Y4 receptor [2]): 0.103 nM
B29: 4057274 (peptide)
chain: B28 chain with A1E, K19R, D23E

IC50 (human Y4 receptor [2]): 0.078 nM
B30: 4057139 (peptide)
chain: B28 chain with K19H, D23E

IC50 (human Y4 receptor [1]): 0.09 nM
B31: 4060207 (peptide)
chain: GAPLEPTYPGDNATPEQLAKYAAELRRYINKLTRPRY

IC50 (human Y4 receptor [1]): 0.143 nM
B32: 4060134 (peptide)
chain: B31 chain with T7V, Q17E, K20R

IC50 (human Y4 receptor [1]): 0.143 nM
B33: 4060142 (peptide)
chain: B31 chain with T7K, N12D, Q17E

IC50 (human Y4 receptor [1]): 0.08 nM
B34: 4059856 (peptide)
chain: B31 chain with G1Y, E5K, T7E

IC50 (human Y4 receptor [2]): 0.088 nM
B35: 4057441 (peptide)
chain: B31 chain with G1P, T7E, N12D, E16Q

IC50 (human Y4 receptor [1]): 0.068 nM
B36: 4059863 (peptide)
chain: B31 chain with G1H, E5K

IC50 (human Y4 receptor [1]): 0.106 nM
B37: 4060146 (peptide)
chain: B10 chain with A8Y, A24S

IC50 (human Y4 receptor [2]): 0.068 nM
B38: 4057228 (peptide)
chain: B31 chain with G1H, T7V, L18M, K20R

IC50 (human Y4 receptor [1]): 0.126 nM
B39: 4060208 (peptide)
chain: B31 chain with G1P, N12D

IC50 (human Y4 receptor [2]): 0.09 nM
B40: 4057336 (peptide)
chain: B31 chain with T7V, L18M, K20R, E24D

IC50 (human Y4 receptor [1]): 0.07 nM
B41: 4059864 (peptide)
chain: B31 chain with G1P, E5K

IC50 (human Y4 receptor [1]): 0.061 nM
B42: 4060202 (peptide)
chain: B10 chain with A1G, A8Y, K20R, A24S

IC50 (human Y4 receptor [2]): 0.069 nM
B43: 4057148 (peptide)
chain: B31 chain with G1P, T7V, L18T, E24D

IC50 (human Y4 receptor [2]): 0.199 nM
B44: 4057147 (peptide)
chain: B31 chain with G1P, T7V, L18D, E24D

IC50 (human Y4 receptor [2]): 0.07 nM
B45: 4057145 (peptide)
chain: B31 chain with G1P, T7V, E24D

IC50 (human Y4 receptor [1]): 0.073 nM
B46: 4060204 (peptide)
chain: B31 chain with L18K

IC50 (human Y4 receptor [1]): 0.071 nM
B47: 4059862 (peptide)
chain: B31 chain with G1P, E5K, T7K, Y8A

IC50 (human Y4 receptor [2]): 0.057 nM
B48: 4057153 (peptide)
chain: PLEPEYPGDDATPQQMARYAAELRRYINKLTRPRY

IC50 (human Y4 receptor [2]): 0.082 nM
B49: 4057334 (peptide)
chain: B48 chain with E5V, D10N, Q14E, E22D

IC50 (human Y4 receptor [2]): 0.073 nM
B50: 4057256 (peptide)
chain: B48 chain with R18K, E22D

IC50 (human Y4 receptor [2]): 0.109 nM
B51: 4057337 (peptide)
chain: DAPLEPVYPGDNATPEQMARYAADLRRYINKLTRPRY

IC50 (human Y4 receptor [2]): 0.059 nM
B52: 4057235 (peptide)
chain: B51 chain with D1P, R20K, Y37F

IC50 (human Y4 receptor [2]): 0.22 nM
B53: 4057255 (protein)
chain: CAPLEPVYPGDNATPEQMARYAADLRRYINKLTRPRYCAPLEPVYPGDNATPEQMARYAADLRRYINKLTRPRY

IC50 (human Y4 receptor [2]): 0.209 nM
B54: 4057260 (protein)
chain: B53 chain with V7E, N12D, E16Q, R20K, V44E, N49D, E53Q, R57K

IC50 (human Y4 receptor [2]): 0.126 nM
B55: 4057140 (peptide)
chain: PAPLEPEYPGDDATPQQMAHYAAELRRYINKLTRPRY

IC50 (human Y4 receptor [2]): 0.078 nM
B56: 4057258 (peptide)
chain: B55 chain with H20K, E24D

IC50 (human Y4 receptor [2]): 0.078 nM
B57: 4057443 (peptide)
chain: B55 chain with E7D, H20K

IC50 (human Y4 receptor [2]): 0.101 nM
B58: 4057442 (peptide)
chain: B55 chain with E7S, H20K

IC50 (human Y4 receptor [2]): 0.08 nM
B59: 4057279 (peptide)
chain: B55 chain with A2K, H20R

Reference: patent publication US20100279930A1 (published 2010)
